Earlier results as cited in article PMC8900292.

Target: VAMP2 juxtamembrane LD (UniProt P63027)
Sequence of UniProt P63027 (P63027 whole entry, looked up): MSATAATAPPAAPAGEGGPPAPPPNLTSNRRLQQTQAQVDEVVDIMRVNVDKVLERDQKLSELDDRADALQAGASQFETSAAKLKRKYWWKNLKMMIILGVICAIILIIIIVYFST

- Kd: 10 µM
Substance: Munc13-1 MUN (from UniProt Q62768)
